B1: SbTyrAnc: non-canonical TyrA enzyme of Sorghum bicolor, SEQ ID NO: 43 (protein)
chain: MASSLRHFAGLGCFPAVASTSGSTCCLRRYTPNFCAFVALRPISPPAATATATAKALTSPSPVEQHLQAVVPCHGISDPPAASSAAAVPAAPLRVGIVGFGNFGQFIAGGLQRQGHVVLAASRSDYSVYCASHGIRFFRSVDALCEEQPDVLLICSSILSTEGVVRAIPFRKLRHDTIVADVLSVKEFPRNLLLEVLPPGFGIICTHPMFGPESGKHGWGKLPFVFDKVRVAEDGDQAAKCDQFLSIFEQEGCRMVEMSCAEHDRYAAGSQFITHTIGRVLSQLNLKSTPINTKGYETLLQLTKNTVSDSFDLYYGLFMYNVNATEQLDKLEMAFEKVRQMLSGRLHDFIRKQIVERAAHVPADPSGKLANGLSSSPAARLL
modifications: Sorghum bicolor
B2: BdTyrAnc: non-canonical TyrA enzyme of Brachypodium distachyon, SEQ ID NO: 37 (protein)
chain: MASSLVHLSSPAGGRTAAAPPSLLSRFSPNFCAFATLRPGPTRPTAATPKHARARTCAEQEQKQEVAAPCRDAYEKPAVWNTTAADSAEAAPPLRVGIIGFGNFGQFIARGIQRQGHAVLATSRSDYSAYCSAQGIRYFRSLEALCEEQPNVLLVCSSILSTEAVVRAIPFHKLRSDTIVADVLSVKQFPRNLLLEILPPEFGIVCTHPMFGPESGKHGWSTLPFVYDKVRLADKGDQKANCGQFLSIFEGEGCRMVEMSCAEHDRHAAASQFITHTIGRVLAQLNLKSTPINTKGFEALLKLTENTVSDSFDLYYGLFMYNVNATEQIEKLERAFEKVKQMLYGRLHDILRKQIVERVPI
modifications: Brachypodium distachyon
B3: BdTyrA2: TyrA2 arogenate dehydrogenase of Brachypodium distachyon, SEQ ID NO: 35 (protein)
chain: MSSSGRFHQPPSCRRPAALAQSLRASTTTVTCRWRQQYHHPLAAAPLRLRAVPVRATDAARQPFDHLSGAVKSEEGTHPRLKIAIVGFGNYGQFLARTMVQQGHTVLAHSRSDHSAAAATIGASFYADAHDLCECQPDVVLLSTSILSAEAVLRSLPVHRFRRSTLFADVLSVKEFPKNLLLAYLPGDFDVICTHPMFGPESARDGWAGLPFVFDEVRVGDGPARRARADAFLDVFAREGCRMVEMSCAEHDAHAAETQFLTHTVGRMLATLDLKSTPINTKGYETLLRLVDNTCSDSFDLYNGLFMYNNNATELLHRLESAMDSVKRRLFDGLHEVLRRQLFEGSPPLNRDSSFPAESSLDDGR
modifications: Brachypodium distachyon

Tests used:
[1] = system: Nicotiana benthamiana leaves; assay: Transient expression of TyrA genes in Nicotiana benthamiana leaves (CaMV 35S promoter), tyrosine by HPLC; assay type: in vivo; conditions: infiltrated leaves, 72 hours
Experimental: Agrobacterium tumefaciens strain GV3101 transformed with the plant expression constructs were grown at 28° C. for 24 to 36 hours in 10 mL of LB liquid media containing the corresponding antibiotics. The saturated cultures were spun down at 3,000 g for 5 minutes at room temperature and washed twice with 3 mL of induction media (IM; 10 mM MES [2-(N-morpholino) ethanesulfonic acid] buffer pH 5.6, 0.5% glucose, 2 mM NaH2PO4, 20 mM NH4Cl, 1 mM MgSO4, 2 mM KCl, 0.1 mM CaCl2), 0.01 mM FeSO4, and 0.2 mM acetosyringone). After washing, bacteria cultures were incubated in IM for 2 to 3 hours at room temperature in the dark, pelleted at 3000 g for 5 minutes, and resuspended into 3 mL of 10 mM MES buffer pH 5.6 with 0.2 mM acetosyringone. OD600nm was adjusted to a final density of 0.25 units for pAGM4673::TyrA (FIG. 3F) and pICH47822::DHS (FIG. 5A) infiltration, or 0.5 units for pAGM4673::TyrA-DHS co-expression constructs (FIG. 5B) using 10 mM MES buffer pH 5.6 with 0.2 mM acetosyringone. For infiltration of pICH47822::DHS constructs, the Agrobacterium suspensions were adjusted to OD600nm=0.5 and mixed with an equal volume of a suspension of an Agrobacterium clone transformed with pICH4780::p19 under control of the Arabidopsis ubiquitin ligase promoter adjusted to OD600nm=0.5, resulting in a final mixture of 0.25 OD600nm units for each construct. […] Nicotiana benthamiana plants of around 4-weeks-old were infiltrated close to the end of the light period into four different spots per plant, distributed into two leaves at two infiltrations per leaf, with each individual spot corresponding with a different construct/treatment. […]
The infiltrated leaf areas, excluding the midrib and major veins, were harvested at 72 hours after infiltration and frozen immediately in liquid nitrogen. […] A tyrosine peak was detected at the retention time of ˜3.5 minutes using fluorescence detection mode (excitation wavelength 274 nm, emission wavelength 303 nm) and quantified with an authentic tyrosine standard (Alfa Acsar, catalog number AAA1114118). […]

[2] = system: Nicotiana benthamiana leaves; assay: Co-expression of BdTyrA and BdDHS enzymes in Nicotiana benthamiana leaves; assay type: in vivo
From the text: Gene expression data in Brachypodium (FIG. 4B) indicate that BdTyrA1 is co-expressed with BdDHS1b and BdPTAL in the internodes, where we detected a high rate of tyrosine production (FIG. 2). […] We therefore hypothesized that BdTyrA1 and BdDHS1b may co-operate in the high production of tyrosine and phenylalanine observed in grass tissues. To test this possibility, we co-expressed in planta different combinations of BdTyrA enzymes and BdDHS enzymes and measured the impact on phenylalanine and tyrosine levels. To this end, we took advantage of the Golden Gate modular cloning system^52 and assembled the BdTyrA and BdDHS expression cassettes into the same vector backbone (FIG. 13). To avoid causing a strong over-expression, BdTyrA and BdDHS were driven by RuBisCO small subunit promoters from Arabidopsis (PAtRbcS3B) and tomato (PSIRbcS3A), respectively (FIG. 13)^51. […] Similarly, no significant additive effects were observed upon co-expression of the BdTyrA enzymes with feedback-regulated BdDHS2 (FIG. 5B).
Agrobacterium tumefaciens strain GV3101 transformed with the plant expression constructs were grown at 28° C. for 24 to 36 hours in 10 mL of LB liquid media containing the corresponding antibiotics. […]
Aromatic amino acids and shikimate were detected using a Vanquish Horizon Binary UHPLC (Thermo Scientific) coupled to a Q Exactive mass spectrometer (Thermo Scientific). […]

[3] = TyrA feedback inhibition by tyrosine (recombinant enzymes); assay type: biochemical; conditions: FIG. 12

Row | Molecule | tyrosine content compared to the GUS control [1] | tyrosine levels relative to the tdTom+YPet control ([2]; RuBisCO small subunit promoters (FIG. 5B)) | decrease of phenylalanine levels compared to YPet with tdTom control ([2]; expressed with tdTom control (FIG. 5B)) | type of inhibition by tyrosine with respect to arogenate [3]
1 | B1 | 14 times |  |  | 
2 | B2 | 8 times | ~100 times | 4 times | competitive
3 | B3 | did not significantly increase tyrosine levels |  |  | 
